Source: PMC3229559

Target: PKC-α (UniProt P20444)
Test: biotin-peptide pull-down from heart extract
Conditions: reference: non-phosphorylated peptide; sites S179

binding against the reference: weaker
Substance: syndecan-4 cytoplasmic part, 171-198 (from UniProt O35988) pS179 peptide
